In the supplement of paper PMC9170038:

Test system: MS2 coat protein
Test: apparent KD of MS2 coat protein; designed switch direction (-1 OFF switch, 1 ON switch): -1; higher = weaker reporter binding
How it was run: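 The reported apparent KD is a per-design median over clusters, from curve fits of normalised cluster fluorescence. Protein titrations used SNAP-549-labelled MS2 coat protein, doubled from 0.7 or 1.5 nM to 3 µM, in Tris-HCl pH 7.5 buffer with KCl, MgCl2, BSA, DTT, tRNA and Tween-20, with no input, 200 uM small-molecule ligand, or an oligonucleotide input. The RNA switches were transcribed on Illumina chips by stalled E. coli RNA polymerase.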

[1] = Eterna round: R95, input ligand: FMN 200 uM
[2] = Eterna round: R95, input ligand: microRNA oligo, concentration not stated
[3] = Eterna round: R95, input ligand: none

| Sequence | apparent KD of MS2 coat protein [2] [nM] | apparent KD of MS2 coat protein (input ligand: FMN 200 uM) [nM] | apparent KD of MS2 coat protein (input ligand: none) [nM] | further results |
| --- | --- | --- | --- | --- |
| AGUAACUAUCACGAAAGUGAUAGUUACACAAGCAGUGAAACAUGAGGAUCACCCAUGUCCUCAAUUGCUCGUCUUAU [Sensor 3 - 31] (puzzle: Sensor v3, turn-off variant 2) | 194 |  |  | apparent KD of MS2 coat protein [1]: 47.8 nM; apparent KD of MS2 coat protein [3]: 49.6 nM |
| ACAAGCUUUUUGCAACAAGCAUUAAACUCUCAGAUCGUAACAUGAGGAUCACCCAUGUAAGUUUUAUGACGUCUUAU [JR_SV3TOV2_Sub095] (puzzle: Sensor v3, turn-off variant 2) | 18.1 |  |  | apparent KD of MS2 coat protein [1]: 20.8 nM; apparent KD of MS2 coat protein [3]: 22.9 nM |
| GGACAUAAAGUCAGGAUAUUAAGGCGACCACGCGAUGAGAAGGGACAUGAGGAUCACCCAUGUGAUUCUCAUCA [Ingebive] (Eterna round: R97, puzzle: Brourd's mod of Exclusion 4) |  | 74.1 | 72.6 |  |
| AGGUCACAUGAGGAUCACCCAUGUGAGGAUAUUUACUCAAGAGCUUCGGCUCUCAGGUGAAGAAGGCGCAAUGA [EX1 #54] (Eterna round: R97, puzzle: Exclusion 1) |  | 27.2 | 30 |  |
| ACAUUGAAUGUGAGGAUAUCGAUGUGAUGGGUUGUCGAGAAGGCACAUGAGGAUCACCCAUGUGGGAAACAGCA [JR_BMEx4_Sub031] (Eterna round: R97, puzzle: Brourd's mod of Exclusion 4) |  | 127 | 44.6 |  |
| CUUCGUAUAGAGGAUAUAGGAUACGAAAGUGUCCUAGAAGGCUGUACAUGAGGAUCACCCAUGUACUUCAGAUC [Exclusion 6 - B - 14:e] (puzzle: Exclusion 6) | 11.7 |  |  |  |
| AGUACUGGCGCGUCGGUGUUGGUACAAUAAGCUUGUGAAACAUGAGGAUCACCCAUGUCCUCAUAAGCUCGUCUUAU [salish99_TOv2_r2_083] (puzzle: Sensor v3, turn-off variant 2) | 600 |  |  | apparent KD of MS2 coat protein [1]: 16.9 nM; apparent KD of MS2 coat protein [3]: 16.5 nM |
| ACGUAGGUAGUUAGGAUAUUUAGUAUAUUUACAGUGAAGAAGGAACAUGAGGAUCACCCAUGUAGUGGUGUCCA [Eternabot (L1) Solution 68] (Eterna round: R97, puzzle: Brourd's mod of Exclusion 4) |  | 1200 | 3180 |  |
| UCAUGUUUAGAGGAUAUGAUUACUUUUGAGUAAUCAGAAGGCUAGACAUGAGGAUCACCCAUGUCAUAACAUGA [Exclusion 6 - B - 15:d] (puzzle: Exclusion 6) | 71.5 |  |  |  |
| GAGGAACAUGAGGAUCACCCAUGUGAGGAUAUGCAUAGUGAGGUAGUAGAAGUUGAAUGCAGAAGGUACACUGA [JR_Exclu1_Sub077] (puzzle: Exclusion 1) | 39 |  |  |  |
| AAGAUACAUGAGGAUCACCCAUGUGAGGAUAUGAGCACGCCGGUGACGGUGAUAAGAAUCAGAAGGCACAAUGG [JL-ex1-4.32 salish99 mod] (Eterna round: R97, puzzle: Exclusion 1) |  | 151 | 327 |  |
| GCUUGUAGAGGAUAUACAAGGGCCCGAGCGGCGAGAGCCGCACAUGAGGAUCACCCAUGUAGAAGGCUACUAUA [JL-ex2-4.21 ViennaUCT mod] (Eterna round: R97, puzzle: Exclusion 2) |  | 201 | 237 |  |
| GGACGGUUAGUCAGGAUAUGCUCUACCUCGGUAGAGCAGAAGGGACAUGAGGAUCACCCAUGUGAAAACUGUUC [Omei Ex4B B37] (Eterna round: R97, puzzle: Brourd's mod of Exclusion 4) |  | 30.2 | 24.9 |  |
| UUAAUGGCUGUGAGGAUAUCGGAUAGAUAGAUAUUCGAGAAGGCACAUGAGGAUCACCCAUGUGUGAUUAGAGA [Brourd's EX4 #63] (Eterna round: R97, puzzle: Brourd's mod of Exclusion 4) |  | 130 | 26 |  |
| UUUCUCGUUGUGAGGAUAUCGUUUUUGUCUCGGAUCGAGAAGGCACAUGAGGAUCACCCAUGUUUGUUGUGGUU [JR_BMOE4_Sub089] (puzzle: Brourd's mod of Exclusion 4) | 74.9 |  |  |  |
| AGCAGACGAGGAUAUAGAUUUAGAUACAUGAGGAUCACCCAUGUAUACAUGUAUUUAGAUUUAGAAGGCGUCUGCU [E5/14-A1] (Eterna round: R97, puzzle: Exclusion 5) |  | 1250 | 1340 |  |
| CCAUGUGAGGAGGAUAUCGCCGCGCGAACCGAAUGAGAAGGUCUUACAUGAGGAUCACCCAUGUAAAGUACAUC [Eternabot (L1) Solution 1] (Eterna round: R97, puzzle: Exclusion 6) |  | 20.9 | 13.1 |  |
| AGUACUUUCACGAAAGUGAAAGUACAAAUGAGCUUUUGAACAUGAGGAUCACCCAUGUCCUCAUAAGCUCGUCUUAA [Mat - Sensor v2 - var 2 - Mod - D175] (Eterna round: R96, puzzle: Sensor v2, turn-off variant 2) |  | 28.3 | 30.7 | apparent KD of MS2 coat protein (input ligand: microRNA oligo, concentration not stated): 458 nM |
| AUCCUACAUGAGGAUCACCCAUGUCAGGAUAUCCAAGAAAUCUGGCCGUAUCGGCCAGGGAGAAGGGACAUGGU [jl-ex1-4.63 ViennaUCT mod] (Eterna round: R97, puzzle: Exclusion 1) |  | 85.3 | 49 |  |
